Laboratory results from IntAct's records for PubMed 17997972.

B1: Nuclear distribution protein nudE-like 1 (Homo sapiens), Q9GZM8 (parent)
chain: MDGEDIPDFSSLKEETAYWKELSLKYKQSFQEARDELVEFQEGSRELEAELEAQLVQAEQRNRDLQADNQRLKYEVEALKEKLEHQYAQSYKQVSVLEDDLSQTRAIKEQLHKYVRELEQANDDLERAKRATIVSLEDFEQRLNQAIERNAFLESELDEKESLLVSVQRLKDEARDLRQELAVRERQQEVTRKSAPSSPTLDCEKMDSAVQASLSLPATPVGKGTENTFPSPKAIPNGFGTSPLTPSARISALNIVGDLLRKVGALESKLAACRNFAKDQASRKSYISGNVNCGVLNGNGTKFSRSGHTSFFDKGAVNGFDPAPPPPGLGSSRPSSAPGMLPLSV
partner: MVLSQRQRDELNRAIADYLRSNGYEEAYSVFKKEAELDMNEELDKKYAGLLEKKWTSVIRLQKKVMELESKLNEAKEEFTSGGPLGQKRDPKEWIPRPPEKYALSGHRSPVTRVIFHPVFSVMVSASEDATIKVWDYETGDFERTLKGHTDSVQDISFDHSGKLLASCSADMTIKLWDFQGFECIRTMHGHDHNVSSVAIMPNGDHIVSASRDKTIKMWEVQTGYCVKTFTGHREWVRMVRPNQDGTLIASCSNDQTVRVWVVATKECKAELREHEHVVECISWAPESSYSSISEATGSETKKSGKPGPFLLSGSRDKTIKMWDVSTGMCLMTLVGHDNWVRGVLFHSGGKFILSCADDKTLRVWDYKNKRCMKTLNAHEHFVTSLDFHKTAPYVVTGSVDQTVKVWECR

Variants of: B1
Conditions: with lis1_mouse Pafah1b1, P63005

Variant | effect of a mutation on the interaction
MDGEDIPDFSSLKEETAYWKELSLKYKQSFQEARDELVEFQEGSRELEAELEAQLVQAEQRNRDLQADNQRLKYEVEALKEKLEHQYAQSYKQVSVLEDDLSQTRAIKEQLHKYVRELAQANDDLERAKRATIVSLEDFEQRLNQAIERNAFLESELDEKESLLVSVQRLKDEARDLRQELAVRERQQEVTRKSAPSSPTLDCEKMDSAVQASLSLPATPVGKGTENTFPSPKAIPNGFGTSPLTPSARISALNIVGDLLRKVGALESKLAACRNFAKDQASRKSYISGNVNCGVLNGNGTKFSRSGHTSFFDKGAVNGFDPAPPPPGLGSSRPSSAPGMLPLSV [E119A] | disrupting interaction
MDGEDIPDFSSLKEETAYWKELSLKYKQSFQEARDELVEFQEGSRELEAELEAQLVQAEQRNRDLQADNQRLKYEVEALKEKLEHQYAQSYKQVSVLEDDLSQTRAIKEQLHKYVRELEQANDDLERAKAATIVSLEDFEQRLNQAIERNAFLESELDEKESLLVSVQRLKDEARDLRQELAVRERQQEVTRKSAPSSPTLDCEKMDSAVQASLSLPATPVGKGTENTFPSPKAIPNGFGTSPLTPSARISALNIVGDLLRKVGALESKLAACRNFAKDQASRKSYISGNVNCGVLNGNGTKFSRSGHTSFFDKGAVNGFDPAPPPPGLGSSRPSSAPGMLPLSV [R130A] | disrupting interaction
